This note sets out measurements from article PMC8979966.

The target in assay [1] is TCR 868 (single-chain Vbeta-linker-Valpha). The assay is described as follows: YAMTAD: yeast mating between pMHC-displaying and TCR-displaying yeast, diploid selection, deep sequencing; 3 biological x 4 technical repeats. To be noted: S. cerevisiae mating; TCR 868 group vs control TCR A6 group; higher = more enriched with TCR 868 than with the control TCR A6; not monotonic in affinity (misses both ways); not an affinity; keep out of graded; partner unresolved; scale: ratio: mean frequency with TCR 868 / mean frequency with control TCR A6, each normalised to the 3* stop peptide; numbering: sequential-on-construct, sequence starts at 1.

Assay [2] shares this target. To be noted: higher = more enriched with TCR 868 than with the control TCR A6; not monotonic in affinity (misses both ways); scale: ratio: mean frequency with TCR 868 / mean frequency with control TCR A6, each normalised to the 3* stop peptide; numbering: sequential-on-construct, sequence starts at 1.

Like-named read-outs stand apart in the source and are kept apart here.

On to “SL9 peptide (HIV-1 Gag, […]) presented by HLA-A*02:01 3G (SLGNTVATL; codon GGT)”, for which the screen value in assay [1] is 0.969.

Consider “SL9 peptide (HIV-1 Gag, […]) presented by HLA-A*02:01 3L (SLLNTVATL; codon CTG)”, for which, in assay [1], the screen value came to 1.89.

“SL9 peptide (HIV-1 Gag, […]) presented by HLA-A*02:01 3S (SLSNTVATL; codon TCG)”: in assay [1], the screen value came to 1.06.

On to “SL9 peptide (HIV-1 Gag, […]) presented by HLA-A*02:01 3H (SLHNTVATL; codon CAT)”, for which the screen value in assay [1] is 1.25.

In the case of “SL9 peptide (HIV-1 Gag, […]) presented by HLA-A*02:01 3R (SLRNTVATL; codon CGT)”, the screen value in assay [1] was found to be 1.04.

For “SL9 peptide (HIV-1 Gag, […]) presented by HLA-A*02:01 3W (SLWNTVATL; codon TGG)”, the screen value in assay [1] came to 1.2.

Consider “SL9 peptide (HIV-1 Gag, […]) presented by HLA-A*02:01 3I (SLINTVATL; codon ATT)”, for which the screen value in assay [1] was found to be 1.28.

Regarding “SL9 peptide (HIV-1 Gag, […]) presented by HLA-A*02:01 3C (SLCNTVATL; codon TGT)”, the screen value in assay [1] came to 1.1.

With “SL9 peptide (HIV-1 Gag, […]) presented by HLA-A*02:01 3V (SLVNTVATL; codon GTT)”, the screen value in assay [1] came out at 1.16.

In the case of “SL9 peptide (HIV-1 Gag, […]) presented by HLA-A*02:01 3L (SLLNTVATL; codon CTT)”, in assay [1], the screen value came out at 2.02.

For the substance “SL9 peptide (HIV-1 Gag, […]) presented by HLA-A*02:01 3T (SLTNTVATL; codon ACT)”, in assay [2], the screen value was found to be 1.11.

With “SL9 peptide (HIV-1 Gag, […]) presented by HLA-A*02:01 3A (SLANTVATL; codon GCT)”, the screen value in assay [1] worked out at 1.12.

Take “SL9 peptide (HIV-1 Gag, […]) presented by HLA-A*02:01 3A (SLANTVATL; codon GCG)”: the screen value in assay [1] came out at 1.01.

In the case of “SL9 peptide (HIV-1 Gag, […]) presented by HLA-A*02:01 3R (SLRNTVATL; codon CGG)”, the screen value in assay [1] was determined as 1.09.

Take “SL9 peptide (HIV-1 Gag, […]) presented by HLA-A*02:01 3E (SLENTVATL; codon GAG)”: the screen value in assay [1] turned out to be 0.967.

On to “SL9 peptide (HIV-1 Gag, […]) presented by HLA-A*02:01 3T (SLTNTVATL; codon ACG)”, for which the screen value in assay [2] is 1.07.

“SL9 peptide (HIV-1 Gag, […]) presented by HLA-A*02:01 3S (SLSNTVATL; codon TCT)”: the screen value in assay [1] worked out at 1.08.

For “SL9 peptide (HIV-1 Gag, […]) presented by HLA-A*02:01 3F (SLFNTVATL; codon TTT)”, the screen value in assay [1] worked out at 2.02.

As to “SL9 peptide (HIV-1 Gag, […]) presented by HLA-A*02:01 3D (SLDNTVATL; codon GAT)”, the screen value in assay [1] was found to be 1.15.

Take “SL9 peptide (HIV-1 Gag, […]) presented by HLA-A*02:01 3P (SLPNTVATL; codon CCG)”: in assay [1], the screen value was 1.03.

As to “SL9 peptide (HIV-1 Gag, […]) presented by HLA-A*02:01 3P (SLPNTVATL; codon CCT)”, the screen value in assay [1] worked out at 0.983.

For “SL9 peptide (HIV-1 Gag, […]) presented by HLA-A*02:01 3Q (SLQNTVATL; codon CAG)”, the screen value in assay [1] came to 1.16.

Take “SL9 peptide (HIV-1 Gag, […]) presented by HLA-A*02:01 3S (SLSNTVATL; codon AGT)”: the screen value in assay [1] worked out at 1.08.

For the substance “SL9 peptide (HIV-1 Gag, […]) presented by HLA-A*02:01 3N (SLNNTVATL; codon AAT)”, the screen value in assay [1] turned out to be 0.989.

As to “SL9 peptide (HIV-1 Gag, […]) presented by HLA-A*02:01 3M (SLMNTVATL; codon ATG)”, the screen value in assay [1] turned out to be 1.16.

With “SL9 peptide (HIV-1 Gag, […]) presented by HLA-A*02:01 3L (SLLNTVATL; codon TTG)”, the screen value in assay [1] was found to be 1.84.

With “SL9 peptide (HIV-1 Gag, […]) presented by HLA-A*02:01 3V (SLVNTVATL; codon GTG)”, in assay [1], the screen value stood at 1.11.

Regarding “SL9 peptide (HIV-1 Gag, […]) presented by HLA-A*02:01 3K (SLKNTVATL; codon AAG)”, the screen value in assay [1] turned out to be 1.21.

Turning to “SL9 peptide (HIV-1 Gag, […]) presented by HLA-A*02:01 3G (SLGNTVATL; codon GGG)”, in assay [1], the screen value amounted to 0.959.

On to “SL9 peptide (HIV-1 Gag, […]) presented by HLA-A*02:01 3R (SLRNTVATL; codon AGG)”, for which the screen value in assay [1] is 1.06.
